Measurements published in PMC3985465.

Biological target: L′LKAAμ thiopeptide (thioleucine-Leu-Lys-Ala-Ala-7-methoxycoumarin-4-ylalanine)
Assay: stopped-flow fluorescence kinetics
Settings: other: stopped-flow fluorescence kinetics (global fit to a three-step scheme)

B1: Papain (crude, from papaya latex) (protein)
chain: IPEYVDWRQKGAVTPVKNQGSCGSCWAFSAVVTIEGIIKIRTGNLNEYSEQELLDCDRRSYGCNGGYPWSALQLVAQYGIHYRNTYPYEGVQRYCRSREKGPYAAKTDGVRQVQPYNEGALLYSIANQPVSVVLEAAGKDFQLYRGGIFVGPCGNKVDHAVAAVGYGPNYILIKNSWGTGWGENGYIRIKRGTGNSYGVCGLYTSSFYPVKN
- KS (enzyme-substrate complex, first step of the three-step scheme): KS = k1/k–1 = 921 μM
